Data: publication PMC5068790

Columns and labels:
[1] = target: mouse Slo1 (BK channel α subunit) (mouse) (UniProt Q08460)
[2] = target: Drosophila Slo1 (BK channel α subunit) (Drosophila) (UniProt Q03720)
Chain of UniProt Q03720 (Q03720 whole entry): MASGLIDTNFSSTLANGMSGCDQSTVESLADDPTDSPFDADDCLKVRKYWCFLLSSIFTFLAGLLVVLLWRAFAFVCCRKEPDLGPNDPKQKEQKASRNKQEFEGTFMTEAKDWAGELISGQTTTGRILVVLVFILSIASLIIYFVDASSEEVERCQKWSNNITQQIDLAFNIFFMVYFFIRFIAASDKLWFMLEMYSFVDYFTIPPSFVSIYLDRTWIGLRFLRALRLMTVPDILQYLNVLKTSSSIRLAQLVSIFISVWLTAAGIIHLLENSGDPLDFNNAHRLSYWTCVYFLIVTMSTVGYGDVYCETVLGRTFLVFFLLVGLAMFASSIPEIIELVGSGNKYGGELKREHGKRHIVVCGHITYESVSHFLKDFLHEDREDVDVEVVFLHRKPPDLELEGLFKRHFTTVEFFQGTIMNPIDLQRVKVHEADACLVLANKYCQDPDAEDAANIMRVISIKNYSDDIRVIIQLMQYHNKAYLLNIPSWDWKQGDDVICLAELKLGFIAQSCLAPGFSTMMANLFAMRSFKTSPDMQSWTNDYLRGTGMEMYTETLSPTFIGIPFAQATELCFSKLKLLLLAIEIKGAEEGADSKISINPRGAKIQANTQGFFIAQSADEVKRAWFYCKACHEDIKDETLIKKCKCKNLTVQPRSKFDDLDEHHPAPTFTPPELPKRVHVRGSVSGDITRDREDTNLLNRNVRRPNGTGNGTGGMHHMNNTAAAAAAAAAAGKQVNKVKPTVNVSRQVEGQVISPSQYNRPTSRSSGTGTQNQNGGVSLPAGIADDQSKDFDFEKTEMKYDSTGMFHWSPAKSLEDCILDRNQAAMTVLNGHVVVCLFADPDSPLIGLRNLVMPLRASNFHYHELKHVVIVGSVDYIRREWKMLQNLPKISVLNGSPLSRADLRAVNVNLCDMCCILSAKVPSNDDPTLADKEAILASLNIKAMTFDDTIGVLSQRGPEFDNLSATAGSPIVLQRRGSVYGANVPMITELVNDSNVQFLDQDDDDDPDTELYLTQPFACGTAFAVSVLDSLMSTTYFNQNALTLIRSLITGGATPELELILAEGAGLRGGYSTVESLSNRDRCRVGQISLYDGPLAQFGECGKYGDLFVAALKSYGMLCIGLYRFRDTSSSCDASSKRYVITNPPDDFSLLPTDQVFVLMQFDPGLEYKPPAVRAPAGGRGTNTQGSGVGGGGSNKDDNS

Chain of UniProt Q08460 (Q08460 whole entry): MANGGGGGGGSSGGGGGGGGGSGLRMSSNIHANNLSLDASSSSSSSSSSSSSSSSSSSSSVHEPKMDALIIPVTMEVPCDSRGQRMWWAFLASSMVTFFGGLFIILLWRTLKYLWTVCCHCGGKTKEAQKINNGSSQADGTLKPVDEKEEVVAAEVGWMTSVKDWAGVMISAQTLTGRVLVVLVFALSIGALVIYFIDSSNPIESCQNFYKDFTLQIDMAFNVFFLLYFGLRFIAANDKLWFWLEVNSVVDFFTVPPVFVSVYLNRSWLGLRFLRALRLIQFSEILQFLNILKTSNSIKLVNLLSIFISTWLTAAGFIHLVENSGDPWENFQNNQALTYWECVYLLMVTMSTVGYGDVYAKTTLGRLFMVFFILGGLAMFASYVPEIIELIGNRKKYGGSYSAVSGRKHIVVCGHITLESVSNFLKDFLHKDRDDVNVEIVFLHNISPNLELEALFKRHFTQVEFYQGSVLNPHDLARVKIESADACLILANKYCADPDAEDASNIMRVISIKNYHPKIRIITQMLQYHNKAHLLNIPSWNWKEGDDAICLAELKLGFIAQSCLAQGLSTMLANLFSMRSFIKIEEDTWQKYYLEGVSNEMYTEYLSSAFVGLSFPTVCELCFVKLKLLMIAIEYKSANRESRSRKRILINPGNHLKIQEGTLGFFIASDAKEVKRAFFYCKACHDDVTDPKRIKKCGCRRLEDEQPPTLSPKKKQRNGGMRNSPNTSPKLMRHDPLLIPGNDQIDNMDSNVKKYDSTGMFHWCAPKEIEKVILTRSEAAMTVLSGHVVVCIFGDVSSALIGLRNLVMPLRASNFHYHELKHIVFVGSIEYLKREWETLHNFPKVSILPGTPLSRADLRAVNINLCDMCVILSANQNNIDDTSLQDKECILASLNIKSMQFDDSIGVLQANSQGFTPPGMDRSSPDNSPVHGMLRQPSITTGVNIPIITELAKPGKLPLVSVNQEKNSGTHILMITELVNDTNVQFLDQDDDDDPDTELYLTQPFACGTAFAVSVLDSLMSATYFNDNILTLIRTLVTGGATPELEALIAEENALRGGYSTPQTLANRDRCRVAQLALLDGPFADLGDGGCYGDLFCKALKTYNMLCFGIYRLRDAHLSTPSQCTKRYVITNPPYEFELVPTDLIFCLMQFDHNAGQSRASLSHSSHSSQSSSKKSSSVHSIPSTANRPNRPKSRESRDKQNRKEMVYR

| patch clamp, inside-out patches of HEK293 cells, α:β2 transfection ratio 1:0.2, 10 μM Ca2+: share of random tests with a left shift of V50 to −30 mV from about +25 mV (called binding rate) [1] | patch clamp, inside-out patches of HEK293 cells, transfection ratio 1:0.2: share of random tests with slow activation (called β2 binding rate) [2] | patch clamp, inside-out patches of HEK293 cells, α:β2 transfection ratio 1:0.2: share of random tests whose currents showed rapid and complete inactivation (called binding rate) [1] | patch clamp, inside-out patches of HEK293 cells: share of random tests with inactivation or brief openings (β2 binding ratio) at α:β2 transfection ratios 1:0.2 (about 7%), 1:1, 1:4 and 1:8 [2] | Binder |
| --- | --- | --- | --- | --- |
| 100% | 100% |  |  | Δ3-β2 (β2 subunit with the inactivation ball FIW deleted) (natural protein) MTSGRTSSSYRHDEKRNIYQKIRDHDLLDKRKTVTALKAGEDRAILLGLAMMVCSIMMYFLLGITLLRSYMQSVWTEESQCTLLNASITETFNCSFSCGPDCWKLSQYPCLQVYVNLTSSGEKLLLYHTEETIKINQKCSYIPKCGKNFEESMSLVNVVMENFRKYQHFSCYSDPEGNQKSVILTKLYSSNVLFHSLFWPTCMMAGGVAIVAMVKLTQYLSLLCERIQRINR |
|  |  | 100% | 85% | BK channel auxiliary β2 subunit (natural protein) MFIWTSGRTSSSYRHDEKRNIYQKIRDHDLLDKRKTVTALKAGEDRAILLGLAMMVCSIMMYFLLGITLLRSYMQSVWTEESQCTLLNASITETFNCSFSCGPDCWKLSQYPCLQVYVNLTSSGEKLLLYHTEETIKINQKCSYIPKCGKNFEESMSLVNVVMENFRKYQHFSCYSDPEGNQKSVILTKLYSSNVLFHSLFWPTCMMAGGVAIVAMVKLTQYLSLLCERIQRINR |
